Laboratory results as given in US20240368238A1 (DRACOTERPIN BIOMEDICINE, published 2024).

T1: IL-2Rβ/γ-Fc heterodimer (IL-2Rβ-Fc-hole + IL-2Rγ-Fc-knob) (UniProt P14784 27-240; P31785 23-262)
T1 construct: Both chains transfected together into HEK293; purified with Protein A and Superdex 200; used as the analyte in the BLI; also called IL-2Rβ/γ heterodimers; not shown: Fc hole; Fc knob
T1 sequence (looked up) 1: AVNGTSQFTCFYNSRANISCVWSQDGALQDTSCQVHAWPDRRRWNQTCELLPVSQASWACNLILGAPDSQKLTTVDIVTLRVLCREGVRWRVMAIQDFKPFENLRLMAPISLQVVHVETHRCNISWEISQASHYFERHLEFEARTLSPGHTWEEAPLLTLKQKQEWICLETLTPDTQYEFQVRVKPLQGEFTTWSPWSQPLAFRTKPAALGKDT
T1 sequence (looked up) 2: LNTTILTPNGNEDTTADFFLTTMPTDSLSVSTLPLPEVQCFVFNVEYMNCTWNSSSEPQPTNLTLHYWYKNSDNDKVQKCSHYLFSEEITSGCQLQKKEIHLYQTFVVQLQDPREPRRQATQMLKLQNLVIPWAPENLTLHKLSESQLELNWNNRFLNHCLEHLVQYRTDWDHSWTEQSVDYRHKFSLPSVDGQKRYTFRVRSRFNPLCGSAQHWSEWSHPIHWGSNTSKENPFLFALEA

T2: IL2-Rα-his (UniProt P01589 22-240, limits assumed)
T2 construct: used as the analyte in the BLI; also called IL-2 receptor α; CD25; not shown: his tag
T2 sequence (looked up): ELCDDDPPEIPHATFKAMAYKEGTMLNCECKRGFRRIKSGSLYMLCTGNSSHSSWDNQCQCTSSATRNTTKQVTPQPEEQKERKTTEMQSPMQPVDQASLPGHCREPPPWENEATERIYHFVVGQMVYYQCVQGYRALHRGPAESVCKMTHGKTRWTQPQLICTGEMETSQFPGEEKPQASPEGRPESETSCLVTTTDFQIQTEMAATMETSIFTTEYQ

T3: IL-2Rβ/γ receptor subunit complex on CTLL-2 cells (UniProt P16297 27-539; P34902 23-369)
T3 sequence (looked up) 1: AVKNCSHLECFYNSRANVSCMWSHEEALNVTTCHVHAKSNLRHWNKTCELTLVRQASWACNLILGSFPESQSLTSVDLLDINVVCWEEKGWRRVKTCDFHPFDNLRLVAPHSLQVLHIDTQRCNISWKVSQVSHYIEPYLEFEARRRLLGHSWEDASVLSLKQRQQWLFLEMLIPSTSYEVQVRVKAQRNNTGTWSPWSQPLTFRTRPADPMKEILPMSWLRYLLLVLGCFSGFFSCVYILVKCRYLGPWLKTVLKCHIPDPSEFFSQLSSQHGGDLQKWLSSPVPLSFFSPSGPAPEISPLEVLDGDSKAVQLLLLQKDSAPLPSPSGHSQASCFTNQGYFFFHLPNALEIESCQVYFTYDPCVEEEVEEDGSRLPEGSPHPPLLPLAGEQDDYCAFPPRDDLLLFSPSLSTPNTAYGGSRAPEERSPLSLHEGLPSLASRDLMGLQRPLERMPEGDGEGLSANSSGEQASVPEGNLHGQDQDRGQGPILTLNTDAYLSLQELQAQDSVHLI
T3 sequence (looked up) 2: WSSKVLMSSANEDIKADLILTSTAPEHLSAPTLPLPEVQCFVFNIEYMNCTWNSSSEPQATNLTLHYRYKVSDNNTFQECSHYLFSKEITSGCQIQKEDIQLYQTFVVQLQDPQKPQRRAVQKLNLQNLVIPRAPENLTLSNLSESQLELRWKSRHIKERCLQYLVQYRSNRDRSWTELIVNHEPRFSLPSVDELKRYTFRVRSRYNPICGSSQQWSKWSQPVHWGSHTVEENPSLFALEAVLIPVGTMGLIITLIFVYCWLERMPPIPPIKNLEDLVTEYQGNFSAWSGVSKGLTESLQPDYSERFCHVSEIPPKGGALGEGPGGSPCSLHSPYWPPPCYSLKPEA

B1: IL-2-6 (35-41 + 43-45 + 125) (ligand)
chain: APTSSSTKKTQLQLEHLLLDLQMILNGINNYKNPMHGLDGFGMPKKATELKHLQCLEEELKPLEEVLNLAQSKNFHLRPRDLISNINVIVLELKGSETTFMCEYADETATIVEFLNRWITFAQSIISTLT
notes: Human IL-2 variant; HEK293 expression, purified by the HPC4 tag; not shown: HPC4 tag at the C-terminus
B2: IL-2-1 (31-32 + 35-41 + 43-45 + 125) (ligand)
chain: APTSSSTKKTQLQLEHLLLDLQMILNGINNGGNPMHGLDGFGMPKKATELKHLQCLEEELKPLEEVLNLAQSKNFHLRPRDLISNINVIVLELKGSETTFMCEYADETATIVEFLNRWITFAQSIISTLT
notes: as for B1
B3: IL-2-8 (35-43 + 125) (ligand)
chain: APTSSSTKKTQLQLEHLLLDLQMILNGINNYKNPMGGLGGFYMPKKATELKHLQCLEEELKPLEEVLNLAQSKNFHLRPRDLISNINVIVLELKGSETTFMCEYADETATIVEFLNRWITFAQSIISTLT
notes: as for B1
B4: IL-2-9 (35-41 + 43-45 + 125) (ligand)
chain: APTSSSTKKTQLQLEHLLLDLQMILNGINNYKNPGGGGGGFGMPKKATELKHLQCLEEELKPLEEVLNLAQSKNFHLRPRDLISNINVIVLELKGSETTFMCEYADETATIVEFLNRWITFAQSIISTLT
notes: as for B1
B5: IL-2-2 (35-41 + 125) (ligand)
chain: APTSSSTKKTQLQLEHLLLDLQMILNGINNYKNPMHGLDGFKFYMPKKATELKHLQCLEEELKPLEEVLNLAQSKNFHLRPRDLISNINVIVLELKGSETTFMCEYADETATIVEFLNRWITFAQSIISTLT
notes: as for B1
B6: IL-2-5 (31-32 + 35-41 + 125) (ligand)
chain: APTSSSTKKTQLQLEHLLLDLQMILNGINNGGNPMHGLDGFKFYMPKKATELKHLQCLEEELKPLEEVLNLAQSKNFHLRPRDLISNINVIVLELKGSETTFMCEYADETATIVEFLNRWITFAQSIISTLT
notes: as for B1
B7: IL-2-3 (31-32 + 125) (ligand)
chain: APTSSSTKKTQLQLEHLLLDLQMILNGINNGGNPKLTRMLTFKFYMPKKATELKHLQCLEEELKPLEEVLNLAQSKNFHLRPRDLISNINVIVLELKGSETTFMCEYADETATIVEFLNRWITFAQSIISTLT
notes: as for B1
B8: IL-2-4 (43-45 + 125) (ligand)
chain: APTSSSTKKTQLQLEHLLLDLQMILNGINNYKNPKLTRMLTFGMPKKATELKHLQCLEEELKPLEEVLNLAQSKNFHLRPRDLISNINVIVLELKGSETTFMCEYADETATIVEFLNRWITFAQSIISTLT
notes: as for B1
B9: IL-2-7 (31-32 + 43-45 + 125) (ligand)
chain: APTSSSTKKTQLQLEHLLLDLQMILNGINNGGNPKLTRMLTFGMPKKATELKHLQCLEEELKPLEEVLNLAQSKNFHLRPRDLISNINVIVLELKGSETTFMCEYADETATIVEFLNRWITFAQSIISTLT
notes: as for B1

Legend:
[1] = molecular target: T1, IL-2Rβ/γ-Fc heterodimer (IL-2Rβ-Fc-hole …); test: Octet BLI per Example 3, IL-2Rβ/γ-Fc heterodimer as analyte at the concentration on the x axis; y axis on the sheet reads OD490
Protocol: (§1) Experimental data were processed using Data Analysis software 9.0. […] The method of global fitting was applied, i.e., the 6 concentrations were analyzed as a group.

[2] = molecular target: T1, IL-2Rβ/γ-Fc heterodimer (IL-2Rβ-Fc-hole …); test: BLI (Octet RED96e), AR2G sensors, IL-2Rβ/γ-Fc heterodimer as analyte, 1:1 global fit
Protocol: as §1

[3] = molecular target: T2, IL2-Rα-his; test: Octet BLI per Example 2, IL-2Rα-his as analyte at the concentration on the x axis; y axis on the sheet reads OD490
Protocol: (§2) 2. The experiment was performed with reference to the experimental design below. The whole experiment was completed under the conditions of 30° C., 1000 rpm, 220 μl/well. The proteins used in the experiment were IL2-Rα-his and IL-2 variants or derivatives thereof obtained by transient expression in HEK293 and affinity purification.
as §1

[4] = molecular target: T3, IL-2Rβ/γ receptor subunit complex on …; test: cell-based or functional assay
[5] = molecular target: T2, IL2-Rα-his; test: BLI (Octet RED96e), AR2G sensors, IL-2Rα-his as analyte, 1:1 global fit
Protocol: as §2, §1

Row | Binder | EC50 (read off the curve) [1] | Kd [2] | binding result [3] | Relative activity (CTLL-2 cell proliferation, CCK-8) [4] | EC50 (read off the curve) [3] | Kd [5]
1 | B1 | ~100 nM | 19.6 nM | no binding (tested: 500 nM) | 13% |  | 
2 | B2 | ~100 nM | 17.9 nM | no binding (tested: 500 nM) | 13% |  | 
3 | B3 | ~100 nM | 21.3 nM | no binding (tested: 1000 nM) | 8% |  | 
4 | B4 | ~100 nM | 27.2 nM | no binding (tested: 500 nM) | 8% |  | 
5 | B5 | ~100 nM | 4.87 nM |  | 64% | ~60 nM | 0.789 nM
6 | B6 | ~100 nM | 5.24 nM |  | 90% | ~60 nM | 0.904 nM
7 | B7 | ~100 nM | 3.74 nM |  | 100% | ~60 nM | 0.656 nM
8 | B8 | ~100 nM | 4.11 nM |  | 100% | ~60 nM | 0.799 nM
9 | B9 | ~100 nM | 6.48 nM |  | 58% | ~70 nM | 3.25 nM
